Results reported in paper PMC8807725, “EPHA2 mediates PDGFA activity and functions together with PDGFRA as prognostic marker and therapeutic target in glioblastoma” (Signal Transduction and Targeted Therapy, 2022).

Target: T1, recombinant human PDGF-AA (human, UniProt P04085 87-211)
T1 construct: Platelet-derived growth factor subunit A (PDGFA), human, recombinant homodimer PDGF-AA; Added to cells at 100 ng/ml; Commercial PDGF-AA is normally the mature chain; also called recombinant human PDGFA homodimer; source: recombinant human protein
Assay: ITC; Microcal iTC200; recombinant human receptor extracellular domain and recombinant human PDGF-AA
Conditions: both partners purified

B1: recombinant human PDGFRA extracellular domain fused with IgG Fc (rhRA-ECD-Fc) (Fc fusion, UniProt P16234 24-528, looked up)
chain: QLSLPSILPNENEKVVQLNSSFSLRCFGESEVSWQYPMSEEESSDVEIRNEENNSGLFVTVLEVSSASAAHTGLYTCYYNHTQTEENELEGRHIYIYVPDPDVAFVPLGMTDYLVIVEDDDSAIIPCRTTDPETPVTLHNSEGVVPASYDSRQGFNGTFTVGPYICEATVKGKKFQTIPFNVYALKATSELDLEMEALKTVYKSGETIVVTCAVFNNEVVDLQWTYPGEVKGKGITMLEEIKVPSIKLVYTLTVPEATVKDSGDYECAARQATREVKEMKKVTISVHEKGFIEIKPTFSQLEAVNLHEVKHFVVEVRAYPPPRISWLKNNLTLIENLTEITTDVEKIQEIRYRSKLKLIRAKEEDSGHYTIVAQNEDAVKSYTFELLTQVPSSILDLVDDHHGSTGGQTVRCTAEGTPLPDIEWMICKDIKKCNNETSWTILANNVSNIITEIHSRDRSTVEGRVTFAKVEETIAVRCLAKNLLGAENRELKLVAPTLRSELTVA
notes: Platelet-derived growth factor receptor alpha (PDGFRA), human, extracellular domain; Species and subclass of the IgG Fc, construct limits and supplier are not in the main text; also called recombinant PDGFRA extracellular domain; source: recombinant human protein
B1 showed a dH of -1070 ± 117.
